Measured values from patent US20190300590A1 (PROTAGONIST THERAPEUTICS, published 2019).
Where two headings read alike, the source gives them in different places. Bridges are numbered along the chain shown (N, C = ends). [ ]: non-standard residue; d: D form. 2Nal = N[C@@H](Cc1ccc2ccccc2c1)C(=O)O; AEF = NCCOc1ccc(C[C@H](N)C(=O)O)cc1; αMeL = CC(C)C[C@](C)(N)C(=O)O; Pen = CC(C)(S)[C@H](N)C(=O)O; hLeu = CC(C)CC[C@H](N)C(=O)O; αMeK = C[C@](N)(CCCCN)C(=O)O; Ac6c = NC1(C(=O)O)CCCCC1; Abu = CC[C@H](N)C(=O)O; Ac4c = NC1(C(=O)O)CCC1; Ac3c = NC1(C(=O)O)CC1; Aib = CC(C)(N)C(=O)O; βAla = NCCC(=O)O

T1: IL-23R on human cells (IL-23R-expressing DB cells; human NK cells) (human, UniProt Q5VWK5 24-629)
T1 sequence (looked up): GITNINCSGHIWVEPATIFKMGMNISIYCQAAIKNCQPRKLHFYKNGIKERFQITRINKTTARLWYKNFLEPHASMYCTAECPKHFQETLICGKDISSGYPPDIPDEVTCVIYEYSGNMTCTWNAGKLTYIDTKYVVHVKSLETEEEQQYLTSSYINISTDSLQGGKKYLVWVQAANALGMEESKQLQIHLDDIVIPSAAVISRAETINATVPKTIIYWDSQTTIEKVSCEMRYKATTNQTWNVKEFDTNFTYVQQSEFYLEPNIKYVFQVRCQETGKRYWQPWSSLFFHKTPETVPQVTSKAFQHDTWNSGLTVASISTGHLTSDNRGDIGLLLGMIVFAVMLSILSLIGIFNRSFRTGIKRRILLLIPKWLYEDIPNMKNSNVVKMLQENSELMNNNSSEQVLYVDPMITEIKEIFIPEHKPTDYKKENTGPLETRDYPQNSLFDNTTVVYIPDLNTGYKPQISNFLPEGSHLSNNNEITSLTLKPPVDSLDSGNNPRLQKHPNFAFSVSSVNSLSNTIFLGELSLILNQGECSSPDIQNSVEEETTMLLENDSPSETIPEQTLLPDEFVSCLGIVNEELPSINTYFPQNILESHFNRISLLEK

T2: IL23R_huFC (human, UniProt Q5VWK5 24-353)
T2 sequence (looked up): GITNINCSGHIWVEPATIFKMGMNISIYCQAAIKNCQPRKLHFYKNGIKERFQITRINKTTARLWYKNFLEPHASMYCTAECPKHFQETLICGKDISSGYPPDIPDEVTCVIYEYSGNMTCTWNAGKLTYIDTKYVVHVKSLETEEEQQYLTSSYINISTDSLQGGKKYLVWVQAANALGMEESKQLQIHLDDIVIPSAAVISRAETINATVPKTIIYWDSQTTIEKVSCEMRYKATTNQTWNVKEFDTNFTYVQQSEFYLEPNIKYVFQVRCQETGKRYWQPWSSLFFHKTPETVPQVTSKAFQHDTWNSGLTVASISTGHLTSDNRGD

T3: Rat IL-23R_huFC (rat, UniProt F1LX96 39-369)
T3 sequence: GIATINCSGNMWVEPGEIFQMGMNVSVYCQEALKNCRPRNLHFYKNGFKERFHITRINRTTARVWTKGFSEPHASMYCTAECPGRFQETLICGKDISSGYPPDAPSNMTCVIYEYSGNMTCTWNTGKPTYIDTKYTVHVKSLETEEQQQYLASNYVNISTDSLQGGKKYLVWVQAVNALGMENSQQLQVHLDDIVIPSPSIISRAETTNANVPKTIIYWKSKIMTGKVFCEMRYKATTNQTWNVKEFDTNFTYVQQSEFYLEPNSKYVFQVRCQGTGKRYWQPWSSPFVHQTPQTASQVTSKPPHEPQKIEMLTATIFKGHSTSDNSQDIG

T4: IL-23R on DB cells (human, UniProt Q5VWK5 24-629)
T4 sequence (looked up): T1 sequence (looked up)

B1: Ac-[Pen]-QTWQ-[Pen]-[Phe[4-(2-acetylaminoethoxy)]-[2-Nal]-[α-MeLeu]-[Lys(Ac)]-NN-NH2 (peptide)
peptide: XQTWQXFXLKNN
modifications: Ac; Pen-Pen disulfide; Phe[4-(2-acetylaminoethoxy)]; 2-Nal; α-MeLeu; Lys(Ac); NH2
B2: pyroglutamic acid-[Pen]-QTWQ[Pen]-[Phe(4-OMe)]-[2-Nal]-[α-MeLys]-[Lys(Ac)]-NG-NH2 (peptide)
peptide: EXQTWQXFXKKNG
modifications: N-terminal pyroglutamic acid; Pen-Pen disulfide; Phe(4-OMe); 2-Nal; α-MeLys; Lys(Ac); NH2
B3: Ac-CRTWQCYWSEFGTGE-NH2 (peptide)
peptide: Ac-CRTWQCYWSEFGTGE-NH2
modifications: disulfide 1-6
SMILES: CC(=O)N[C@H]1CSSC[C@@H](C(=O)N[C@@H](Cc2ccc(O)cc2)C(=O)N[C@@H](Cc2c[nH]c3ccccc23)C(=O)N[C@@H](CO)C(=O)N[C@@H](CCC(=O)O)C(=O)N[C@@H](Cc2ccccc2)C(=O)NCC(=O)N[C@H](C(=O)NCC(=O)N[C@@H](CCC(=O)O)C(N)=O)[C@@H](C)O)NC(=O)[C@H](CCC(N)=O)NC(=O)[C@H](Cc2c[nH]c3ccccc23)NC(=O)[C@H]([C@@H](C)O)NC(=O)[C@H](CCCNC(=N)N)NC1=O
B4: Ac-CSTWQCYWSKQSGGS-NH2 (peptide)
peptide: Ac-CSTWQCYWSKQSGGS-NH2
modifications: disulfide 1-6
SMILES: CC(=O)N[C@H]1CSSC[C@@H](C(=O)N[C@@H](Cc2ccc(O)cc2)C(=O)N[C@@H](Cc2c[nH]c3ccccc23)C(=O)N[C@@H](CO)C(=O)N[C@@H](CCCCN)C(=O)N[C@@H](CCC(N)=O)C(=O)N[C@@H](CO)C(=O)NCC(=O)NCC(=O)N[C@@H](CO)C(N)=O)NC(=O)[C@H](CCC(N)=O)NC(=O)[C@H](Cc2c[nH]c3ccccc23)NC(=O)[C@H]([C@@H](C)O)NC(=O)[C@H](CO)NC1=O

How the values were obtained:
Rat IL-23R_huFC [1] = biological target: Rat IL-23R_huFC (rat); experiment: rat ELISA vs IL-23
[2] = biological target: T1, IL-23R on human cells …; experiment: cell-based or functional assay
IL23R_huFC = biological target: T2, IL23R_huFC; experiment: IL23-IL23R competitive binding ELISA
Rat IL-23R_huFC [3] = biological target: T3, Rat IL-23R_huFC; experiment: rat IL-23R competitive binding ELISA
IL-23R on DB cells = biological target: T4, IL-23R on DB cells; experiment: cell-based or functional assay
Rat IL-23R_huFC [4] = biological target: T3, Rat IL-23R_huFC; experiment: rat IL-23R competitive binding ELISA; remark: listed apart in the source
[5] = biological target: T1, IL-23R on human cells …; experiment: cell-based or functional assay; remark: listed apart in the source

Binder	IC50 (IL23R_huFC) [nM]	pStat3 HTRF IC50 (IL-23R on DB cells) [nM]	IC50 (Rat IL-23R_huFC [4]) [nM]	other results
Ac-[dF][Abu]QTWQC[AEF][2Nal][αMeK]ENN-NH2 (thioether 2-7) [Ac-[(D)Phe]-Cyclo-[[Abu]-QTWQC]-[Phe[4-(2-aminoethoxy)]]-[2-Nal]-[α-MeLys]-ENN-NH2]				IC50 (Rat IL-23R_huFC [1]): < 10 nM; NK cell assay IC50 (IFNγ) [2]: < 25 nM
XQTWQXYXKENG (Ac; Pen-Pen disulfide; 2-Nal; α-MeLys; NH2) [Ac-[Pen]-QTWQ-[Pen]-Y-[2-Nal]-[α-MeLys]-ENG-NH2]	25 to 100	< 10		IC50 (Rat IL-23R_huFC [3]): 100 to 1000 nM
XQTWQXFXLKNN (Ac; Pen-Pen disulfide; Phe[4-(2-aminoethoxy)]; 2-Nal; α-MeLeu; Lys(Ac); NH2) [Ac-[Pen]-QTWQ-[Pen]-[Phe[4-(2-aminoethoxy)]-[2-Nal]-[α-MeLeu]-[Lys(Ac)]-NN-NH2]	< 10	< 10		IC50 (Rat IL-23R_huFC [3]): < 10 nM
XQTWQXFXLQNN (Ac; Pen-Pen disulfide; Phe[4-(2-aminoethoxy)]; 2-Nal; α-MeLeu; NH2) [Ac-[Pen]-QTWQ-[Pen]-[Phe[4-(2-aminoethoxy)]-[2-Nal]-[α-MeLeu]-QNN-NH2]	< 10	< 10		IC50 (Rat IL-23R_huFC [3]): < 10 nM
Ac-[Pen]STWQ[Pen][AEF][2Nal][αMeK]ENG-NH2 (disulfide 1-6 (inferred)) [Ac-[Pen]-STWQ-[Pen]-[Phe[4-(2-aminoethoxy)]-[2-Nal]-[α-MeLys]-ENG-NH2]	10 to 25	< 10		
B1	< 10	< 10		
XQTWQXFXLQNN (Ac; Pen-Pen disulfide; Phe[4-(2-acetylaminoethoxy)]; 2-Nal; α-MeLeu; NH2) [Ac-[Pen]-QTWQ-[Pen]-[Phe[4-(2-acetylaminoethoxy)]-[2-Nal]-[α-MeLeu]-QNN-NH2]	< 10	< 10		
XQTWQXFXKENA (Ac; Pen-Pen disulfide; Phe[4-(2-aminoethoxy)]; 2-Nal; α-MeLys; NH2) [Ac-[Pen]-QTWQ-[Pen]-[Phe[4-(2-aminoethoxy)]-[2-Nal]-[α-MeLys]-ENA-NH2]	< 10	< 10		IC50 (Rat IL-23R_huFC [3]): 25 to 100 nM
XQTWQXFXKENA (Ac; Pen-Pen disulfide; Phe[4-(2-acetylaminoethoxy)]; 2-Nal; α-MeLys(Ac); NH2) [Ac-[Pen]-QTWQ-[Pen]-[Phe[4-(2-acetylaminoethoxy)]-[2-Nal]-[α-MeLys(Ac)]-ENA-NH2]	10 to 25	< 10		
Ac-[Pen]TTWQ[Pen][AEF][2Nal][αMeK]ENG-NH2 (disulfide 1-6 (inferred)) [Ac-[Pen]-TTWQ-[Pen]-[Phe[4-(2-aminoethoxy)]-[2-Nal]-[α-MeLys]-ENG-NH2]	10 to 25	< 10		
XQTWQXFXKENG (Ac; Pen-Pen disulfide; Phe(4-OMe); 2-Nal; α-MeLys; NH2) [Ac-[Pen]-QTWQ-[Pen]-[Phe(4-OMe)]-[2-Nal]-[α-MeLys]-ENG-NH2]	25 to 100			IC50 (Rat IL-23R_huFC [3]): 100 to 1000 nM
Ac-CQTWQCYW[hLeu]ENGG-NH2 (cysteine pairing not given here) [Ac-CQTWQCYW-[hLeu]-ENGG-NH2]			140	
B2	25 to 100	< 10		IC50 (Rat IL-23R_huFC [3]): 25 to 100 nM
B3			778	
XQTWQXYWLENG (Ac; Pen-Pen disulfide; α-MeLeu; NH2) [Ac-[Pen]-QTWQ-[Pen]-Y-[α-MeLeu]-ENG-NH2]	25 to 100	10 to 25		IC50 (Rat IL-23R_huFC [3]): 100 to 1000 nM
Ac-[Abu]QTWQC[AEF][2Nal][Ac6c]ENN-NH2 (thioether 1-6) [Ac-Cyclo-[[Abu]-QTWQC]-[Phe[4-(2-aminoethoxy)]]-[2-Nal]-[Achc]-ENN-NH2]				pStat3 HTRF IC50 [5]: < 10 nM; NK cell assay IC50 (IFNγ) [2]: < 25 nM
Ac-[Abu]QTWQC[AEF][2Nal][Ac3c]ENN-NH2 (thioether 1-6) [Ac-Cyclo-[[Abu]-QTWQC]-[Phe[4-(2-aminoethoxy)]]-[2-Nal]-]Acpc]-ENN-NH2]				NK cell assay IC50 (IFNγ) [2]: < 25 nM

Binder	IC50 (IL23R_huFC) [nM]	pStat3 HTRF IC50 (IL-23R on DB cells) [nM]	IC50 (Rat IL-23R_huFC [4]) [nM]	other results
FXQTWQCFXXENN (as bracketed in name; thioether cyclo)				NK cell assay IC50 (IFNγ) [2]: < 25 nM
Ac-CQTWQCYW[Aib]ENG-NH2 (disulfide 1-6 (inferred)) [Ac-CQTWQCYW-[Aib]-ENG-NH2]			34	
Ac-CSTWECYWHTYG-NH2 (disulfide 1-6) [Ac-CSTWECYWHTYG-NH2]			286	
Ac-[Abu]QTWQC[AEF][2Nal][Ac4c]ENN-NH2 (thioether 1-6) [Ac-Cyclo-[[Abu]-QTWQC]-[Phe[4-(2-aminoethoxy)]]-[2-Nal]-[Acbc]-ENN-NH2]				pStat3 HTRF IC50 [5]: < 10 nM; NK cell assay IC50 (IFNγ) [2]: < 25 nM
CQTWQCYWXENG (Ac; α-MeOrn; NH2) [Ac-CQTWQCYW-[α-MeOrn]-ENG-NH2]			64	
XQTWQXYWXENG (Ac; Pen-Pen disulfide; α-MeOrn; NH2) [Ac-[Pen]-QTWQ-[Pen]-YW-[α-MeOrn]-ENG-NH2]	100 to 1000			IC50 (Rat IL-23R_huFC [3]): 100 to 1000 nM
Ac-CRTWQCYWLRLGDEG-NH2 (disulfide 1-6 (inferred)) [Ac-CRTWQCYWLRLGDEG-NH2]			483	
Ac-CQTWQCYW[hLeu]EPG-NH2 (not fully specified (bridges); cysteine pairing not given here) [Ac-CQTWQCYW-[hLeu]-EPG-NH2]			140	
Ac-CTTWQCYW[hLeu]ENG-NH2 (disulfide 1-6 (inferred)) [Ac-CTTWQCYW-[Leu]-ENG-NH2]			28	
Ac-CQTWQCYW[hLeu]K(Ac)NG-NH2 (cysteine pairing not given here) [Ac-CQTWQCYW-[hLeu]-[Lys(Ac)]-NG-NH2]			32	
Ac-[Abu]QTWQC[AEF][2Nal][αMeL]QN[βAla]-NH2 (thioether 1-6) [Ac-Cyclo-[[Abu]-QTWQC]-[Phe[4-(2-aminoethoxy)]]-[2-Nal]-[α-MeLeu]-QN-[βAla]-NH2]				pStat3 HTRF IC50 [5]: < 10 nM; NK cell assay IC50 (IFNγ) [2]: < 25 nM
CQTWQCYWXENG (Ac; 3-Pal; NH2) [Ac-CQTWQCYW-[3-Pal]-ENG-NH2]			20	
Ac-CQTWQCYW[hLeu]ENE-NH2 (disulfide 1-6 (inferred)) [Ac-CQTWQCYW-[hLeu]-ENE-NH2]			1000	
Ac-CQTWQCYW[hLeu]EEG-NH2 (disulfide 1-6 (inferred)) [Ac-CQTWQCYW-[hLeu]-EEG-NH2]			53	
B4			204	
Ac-FCQTWQCYW[hLeu]ENG-NH2 (cysteine pairing not given here) [Ac-FCQTWQCYW-[hLeu]-ENG-NH2]			25	
Ac-LCQTWQCYW[hLeu]ENG-NH2 (cysteine pairing not given here) [Ac-LCQTWQCYW-[hLeu]-ENG-NH2]			26	
